Source: PMC9605926, “Safety of [^177Lu]Lu-NeoB treatment: a preclinical study characterizing absorbed dose and acute, early, and late organ toxicity” (European Journal of Nuclear Medicine and Molecular Imaging, 2022)
“And” between values parts separate entries of the source, which are not always exact repeats. Equal entries are not always repeated. Where two headings read alike, the source gives them in different places.

Tests used:
[1] = Biodistribution of [177Lu]Lu-NeoB in healthy Balb/c mice, single i.v. injection, organ uptake by gamma counter; assay type: in vivo; conditions: male, mouse, pancreas, iv, total radioactivity, 1 h p.i., read-out: Pancreatic uptake
Method: Both the biodistribution and the radiotoxicity of [^177Lu]Lu-NeoB were studied after administration of 3 different dosages of the radioligand: 40 MBq/400 pmol [^177Lu]Lu-NeoB, 80 MBq/800 pmol [^177Lu]Lu-NeoB, and 120 MBq/1200 pmol [^177Lu]Lu-NeoB. The different dosages were acquired by diluting the stock [^177Lu]Lu-NeoB solution with PBS + kolliphor HS 15 (1 mg/mL). [^177Lu]Lu-NeoB was administered intravenously (tail) to conscious animals in a total volume of 200 µL.
Each dosage of [^177Lu]Lu-NeoB was injected in N = 15 healthy male animals. At 5 different time points post injection (p.i.) (t = 1, 4, 24, 48, and 96 h), 3 animals per dosage group were sacrificed, after which blood and organs were collected and measured to determine radioactivity uptake.
Since in the radiotoxicity studies animals received 3 injections of the radioligand at 1-week intervals, an additional group of 3 male animals were injected twice with 120 MBq/1200 pmol [^177Lu]Lu-NeoB at a 7 days (168 h) interval. […] In addition, to determine the amount of radioactivity remaining in the blood and organs right before a second injection, 3 additional male animals were injected with 40 MBq/400 pmol [^177Lu]Lu-NeoB and the biodistribution was determined at t = 168 h. […]
In the biodistribution study, the adrenal glands, brain, intestines, heart, kidneys, liver, lungs, mammary fat pad, pancreas, muscle, spleen, stomach, prostate gland (M), testes (M), ovaries (F), and urinary bladder were collected, weighed, and measured for radioactivity uptake using a gamma counter (1480 WIZARD automatic γ counter; PerkinElmer). To calculate the percentage injected activity (%IA), a vial containing 200 µL of a 1:1000 dilution of the injected [^177Lu]Lu-NeoB solutions was also measured in the gamma counter. The %IA of all organs and tumor was corrected for the percentage of radioactivity left measured in the tail (injection site).

[2] = test system: healthy Balb/c mice; test: Toxicity study, hematology (same groups as A3); assay type: in vivo, mouse; conditions: 5, 11, 19, 30, 43 wk, mean±SD
Method: (§1) Five different experimental groups (10 male and 10 female healthy animals per group; n = 100) were included in the radiotoxicity study and treated as follows: control group 1: 3 × vehicle (PBS + kolliphor HS 15 (1 mg/mL)); control group 2: 3 × 1200 pmol [^175Lu]Lu-NeoB; treatment group 1: 3 × 40 MBq/400 pmol [^177Lu]Lu-NeoB; treatment group 2: 3 × 80 MBq/800 pmol [^177Lu]Lu-NeoB; and treatment group 3: 3 × 120 MBq/1200 pmol [^177Lu]Lu-NeoB.
(§2) Animals received 3 injections with an interval of 7 days between each injection.
(§3) Throughout the study, the animals were observed daily to check for physical signs of toxicity and signs of discomfort, and animals were weighed 2–3 times per week. Furthermore, at week -1, 5, 11, 19, 30, and 43, blood samples were collected by submandibular puncture from all animals that were in the study at that time point. All blood samples were analyzed for hematological parameters (hematocrit; hemoglobin; red blood cell count; white blood cell count; hemoglobin; mean cell hemoglobin concentration; mean cell volume; platelet count) on the scilVet abc + counter (Covetrus).

[3] = test system: healthy Balb/c mice; test: Toxicity study, clinical chemistry; assay type: in vivo, mouse; conditions: 5, 11, 19, 30, 43 wk, mean±SD
Method: as §1, §2
In addition, the following clinical chemistry parameters were measured: sodium, potassium chloride, calcium, glucose, creatinine, urea, alanine aminotransferase (ALT), aspartate aminotransferase (AST), alkaline phosphatase (ALP), amylase, lipase, and cholesterol, using the Roche/Hitachi cobas c systems according to the standard protocol. To reach the volume necessary for measuring the clinical chemistry parameters, the blood plasma was diluted 3–5 times with demineralized water.

[4] = test system: mouse kidneys; test: Binary logistic regression of absorbed kidney dose versus renal histopathology; assay type: in vivo; conditions: 19 weeks, males and females combined, n = 30; 95% CI: 6.66–11.18 Gy
Method: (§4) Statistical analysis was performed using GraphPad PRISM software (version 5). Significance levels were set at 5%. A simple binary logistic regression analysis was performed to determine a dose–effect relation between the absorbed dose and the histopathological findings in the kidneys using the log-likelihood ratio test as a significance indicator. The weight gain over time of control group 2 and treatment groups 1, 2, and 3 was compared to control group 1 by performing a two-way multiple comparison analysis of variance (ANOVA) with a Bonferroni correction. Significant outliers in the blood values set were detected with the Grubbs’ test and excluded from the data set. At a given time point, the measurements of all study groups were compared by performing a one-way ANOVA and in case of significance a Tukey test to correct for multiple comparisons. All data are represented as mean ± standard deviation (SD).
Binary logistic regression analysis was performed to determine a dose–effect relationship for the incidence of renal toxicity (Fig. 5).

[5] = Toxicity study, body weight (same groups as A3); assay type: in vivo, mouse
Method: as §3, §4

[6] = test system: pancreas; conditions: 100 days after once weekly for 3 consecutive weeks 37 MBq/400 pmol; cited from earlier work
Excerpt: As mentioned above, the GRPR-expressing pancreas is often named as a potential dose-limiting organ for GRPR-targeting radionuclide therapy. Pancreatitis can be diagnosed by an increase in serum lipase and amylase levels, neither of which were consistently found in this study. Furthermore, no histopathological signs of continuous or severe pancreatic toxicity was observed.

Compound: CC(C)CC(CC(C)C)NC(=O)[C@H](Cc1cnc[nH]1)NC(=O)CNC(=O)[C@@H](NC(=O)[C@H](C)NC(=O)[C@H](Cc1c[nH]c2ccccc12)NC(=O)[C@H](CCC(N)=O)NC(=O)[C@@H](Cc1ccccc1)NC(=O)COCC(=O)Nc1ccc(CNC(=O)CN2CCN(CC(=O)O)CCN(CC(=O)O)CCN(CC(=O)O)CC2)cc1)C(C)C [[^177Lu]Lu-NeoB, metal not drawn]
- tissue uptake at 1 h ([1]; 40 MBq/400 pmol): 8.27 ± 0.8 %ID/g
- tissue uptake at 1 h ([1]; 80 MBq/800 pmol): 4.05 ± 0.4 %ID/g
- tissue uptake at 1 h ([1]; 120 MBq/1200 pmol): 1.79 ± 0.2 %ID/g
- WBC ([2]; female, treatment group 1): 6.20 ± 2.24 103/mm3 and 7.60 ± 3.77 103/mm3 and 6.80 ± 1.64 103/mm3 and 9.70 ± 2.96 103/mm3 and 7.20 ± 3.97 103/mm3
- WBC ([2]; female, treatment group 2): 9.10 ± 3.17 103/mm3 and 5.89 ± 2.56 103/mm3 and 7.97 ± 2.09 103/mm3 and 6.74 ± 1.77 103/mm3 and 8.98 ± 1.67 103/mm3
- WBC ([2]; male, treatment group 1): 8.08 ± 2.38 103/mm3 and 8.53 ± 1.17 103/mm3 and 8.12 ± 1.98 103/mm3 and 9.77 ± 2.82 103/mm3 and 7.53 ± 0.83 103/mm3
- WBC ([2]; male, treatment group 2): 7.30 ± 2.24 103/mm3 and 6.65 ± 2.80 103/mm3 and 9.61 ± 1.52 103/mm3 and 8.68 ± 0.34 103/mm3 and 11.13 ± 3.50 103/mm3
- Alk. Phosphatase ([3]; female, treatment group 1): 104.70 ± 11.61 U/L and 85.71 ± 8.98 U/L and 68.75 ± 4.76 U/L and 75.00 ± 0.00 U/L and 86.67 ± 16.07 U/L
- Urea ([3]; female, treatment group 1): 6.84 ± 1.27 mmol/L and 7.24 ± 1.10 mmol/L and 7.29 ± 1.04 mmol/L and 7.00 ± 1.78 mmol/L and 6.00 ± 0.00 mmol/L
- Alk. Phosphatase ([3]; female, treatment group 2): 88.75 ± 7.50 U/L and 96.60 ± 11.73 U/L and 92.57 ± 8.90 U/L and 75.00 ± 8.16 U/L and 87.50 ± 8.66 U/L
- Urea ([3]; female, treatment group 2): 8.13 ± 2.95 mmol/L and 9.48 ± 0.83 mmol/L and 7.41 ± 0.62 mmol/L and 6.64 ± 1.07 mmol/L and 7.50 ± 0.71 mmol/L
- Alk. Phosphatase ([3]; female, treatment group 3): 96.00 ± 15.81 U/L and 93.00 ± 4.65 U/L and 81.43 ± 10.69 U/L and 90.00 ± 9.13 U/L and 110.00 ± 26.46 U/L
- Urea ([3]; female, treatment group 3): 8.94 ± 1.32 mmol/L and 7.97 ± 1.26 mmol/L and 8.50 ± 1.80 mmol/L and 9.25 ± 2.40 mmol/L and 8.63 ± 2.56 mmol/L
- Alk. Phosphatase ([3]; male, treatment group 1): 114.00 ± 8.28 U/L and 98.57 ± 4.04 U/L and 70.00 ± 0.00 U/L and 85.00 ± 10.00 U/L and 68.33 ± 20.82 U/L
- Urea ([3]; male, treatment group 1): 7.44 ± 0.85 mmol/L and 6.60 ± 0.60 mmol/L and 7.00 ± 0.00 mmol/L and 7.50 ± 0.00 mmol/L
- Alk. Phosphatase ([3]; male, treatment group 2): 75.00 ± 15.81 U/L and 112.40 ± 16.22 U/L and 96.86 ± 9.44 U/L and 85.00 ± 0.00 U/L and 80.00 ± 0.00 U/L
- Urea ([3]; male, treatment group 2): 7.33 ± 1.26 mmol/L and 7.46 ± 1.14 mmol/L and 7.24 ± 1.41 mmol/L and 7.13 ± 0.85 mmol/L and 8.00 ± 1.35 mmol/L
- Alk. Phosphatase ([3]; male, treatment group 3): 103.20 ± 13.73 U/L and 99.43 ± 5.59 U/L and 83.75 ± 7.50 U/L and 87.50 ± 8.66 U/L and 80.00 ± 17.80 U/L
- Urea ([3]; male, treatment group 3): 7.59 ± 1.51 mmol/L and 6.77 ± 0.71 mmol/L and 7.25 ± 0.87 mmol/L and 6.50 ± 0.00 mmol/L and 6.75 ± 1.04 mmol/L
- ED50 of absorbed kidney dose for hydronephrosis [4]: 8.65 Gy
- Weight gain versus control group 1 ([5]; female treatment group 2, by the end of the study): significantly higher weight gain
- Weight gain versus control groups ([5]; male treatment group 2, first half of the study): significantly less pronounced weight gain
- Weight gain versus control groups ([5]; male treatment group 3, first half of the study): significantly less pronounced weight gain
- Pancreatic alterations [6]: no pancreatic alterations
